In publication PMC10579538 (The Journal of Biological Chemistry, 2023):
Values belong to the molecule of their own block, whether it stands above or below them.

Key:
actin = actin (UniProt P68135)
[1] = target: myosin-7a subfragment-1 (motor domain and the first IQ motif) (human); experiment: mass photometry
[2] = target: full-length human myosin-7a heavy chain (isoform 1, long N-terminal isoform) (human, UniProt Q13402-1 1-2215); experiment: single-molecule two-color TIRF co-migration on actin
Sequence of full-length human myosin-7a heavy chain (isoform 1, long N-terminal isoform) (Q13402 whole entry, canonical isoform): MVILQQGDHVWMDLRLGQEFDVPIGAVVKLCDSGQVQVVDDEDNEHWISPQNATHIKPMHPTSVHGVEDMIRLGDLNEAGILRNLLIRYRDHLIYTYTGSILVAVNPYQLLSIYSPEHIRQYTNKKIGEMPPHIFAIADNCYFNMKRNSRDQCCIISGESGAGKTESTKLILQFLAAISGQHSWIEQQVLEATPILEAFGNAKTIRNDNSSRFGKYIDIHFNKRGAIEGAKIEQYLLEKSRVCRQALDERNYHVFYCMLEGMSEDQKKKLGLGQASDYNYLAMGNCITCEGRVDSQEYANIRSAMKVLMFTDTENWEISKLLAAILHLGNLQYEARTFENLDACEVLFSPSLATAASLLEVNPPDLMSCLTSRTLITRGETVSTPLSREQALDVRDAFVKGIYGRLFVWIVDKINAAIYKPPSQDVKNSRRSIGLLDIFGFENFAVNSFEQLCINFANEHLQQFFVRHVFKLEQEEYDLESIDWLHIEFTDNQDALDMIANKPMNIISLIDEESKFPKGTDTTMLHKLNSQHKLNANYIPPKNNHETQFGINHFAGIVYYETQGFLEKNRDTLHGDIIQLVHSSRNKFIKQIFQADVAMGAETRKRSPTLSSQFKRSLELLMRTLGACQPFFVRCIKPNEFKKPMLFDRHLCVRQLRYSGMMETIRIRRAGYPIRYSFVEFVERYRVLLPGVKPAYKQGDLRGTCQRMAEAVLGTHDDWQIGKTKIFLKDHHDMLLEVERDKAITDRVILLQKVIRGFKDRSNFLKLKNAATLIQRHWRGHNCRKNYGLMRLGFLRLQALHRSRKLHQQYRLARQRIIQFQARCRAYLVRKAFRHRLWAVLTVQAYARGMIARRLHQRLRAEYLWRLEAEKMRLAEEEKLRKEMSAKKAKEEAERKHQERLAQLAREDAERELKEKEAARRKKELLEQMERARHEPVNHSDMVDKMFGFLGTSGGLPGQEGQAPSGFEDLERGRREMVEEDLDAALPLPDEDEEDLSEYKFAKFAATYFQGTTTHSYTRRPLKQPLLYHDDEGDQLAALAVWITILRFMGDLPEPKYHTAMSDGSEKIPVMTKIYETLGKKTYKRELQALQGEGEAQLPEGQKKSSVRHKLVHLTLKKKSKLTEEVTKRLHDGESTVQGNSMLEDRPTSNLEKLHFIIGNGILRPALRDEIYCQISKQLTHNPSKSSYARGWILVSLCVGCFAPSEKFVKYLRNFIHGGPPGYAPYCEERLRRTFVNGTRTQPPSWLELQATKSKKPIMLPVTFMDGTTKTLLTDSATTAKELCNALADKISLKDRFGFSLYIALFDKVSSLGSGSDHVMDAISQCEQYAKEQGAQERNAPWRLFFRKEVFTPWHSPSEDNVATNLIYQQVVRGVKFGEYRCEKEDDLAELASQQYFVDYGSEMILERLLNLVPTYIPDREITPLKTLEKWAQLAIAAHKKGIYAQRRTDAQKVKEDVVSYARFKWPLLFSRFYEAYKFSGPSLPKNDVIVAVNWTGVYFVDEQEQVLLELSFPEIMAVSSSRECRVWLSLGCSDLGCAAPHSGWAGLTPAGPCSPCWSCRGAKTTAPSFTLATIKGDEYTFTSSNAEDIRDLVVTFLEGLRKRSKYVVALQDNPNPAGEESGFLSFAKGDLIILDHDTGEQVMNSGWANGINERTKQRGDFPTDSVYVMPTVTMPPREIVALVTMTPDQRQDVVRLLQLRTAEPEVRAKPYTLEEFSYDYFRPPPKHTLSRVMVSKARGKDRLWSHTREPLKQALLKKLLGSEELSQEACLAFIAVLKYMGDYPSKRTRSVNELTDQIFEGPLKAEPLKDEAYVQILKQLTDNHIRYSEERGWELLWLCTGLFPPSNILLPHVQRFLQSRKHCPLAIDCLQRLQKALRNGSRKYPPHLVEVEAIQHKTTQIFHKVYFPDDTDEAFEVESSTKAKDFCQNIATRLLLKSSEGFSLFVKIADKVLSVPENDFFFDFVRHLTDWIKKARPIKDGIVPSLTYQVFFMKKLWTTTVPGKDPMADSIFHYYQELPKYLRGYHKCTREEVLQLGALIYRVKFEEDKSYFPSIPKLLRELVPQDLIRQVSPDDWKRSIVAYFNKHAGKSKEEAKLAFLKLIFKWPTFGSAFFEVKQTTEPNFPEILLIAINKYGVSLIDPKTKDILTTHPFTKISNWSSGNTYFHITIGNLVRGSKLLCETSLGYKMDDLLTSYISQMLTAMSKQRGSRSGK

- K ATPase of the actin-activated steady-state ATPase (NADH-coupled assay) (actin): 11 µM
Molecule: myosin-7a subfragment-1 (motor domain and the first IQ motif) (domain or fragment)

- stoichiometry N [1]: 1
Molecule: regulatory light chain (from UniProt O14950 1-172) (natural protein)

- binding result [2]: binds
B1: mCherry-tagged MyRIP (myosin and Rab interacting protein) (natural protein, UniProt Q8NFW9-1 1-859, looked up)
chain: MGRKLDLSGLTDDETEHVLQVVQRDFNLRKKEEERLSELKQKLDEEGSKCSILSKHQQFVEHCCMRCCSPFTFLVNTKRQCGDCKFNVCKSCCSYQKHEKAWVCCVCQQARLLRAQSLEWFYNNVKSRFKRFGSAKVLKNLYRKHRLESGACFDILGGSLFESNLENEGSISGSDSTFYRQSEGHSVMDTLAVALRVAEEAIEEAISKAEAYGDSLDKQNEASYLRDHKEELTEELATTILQKIIRKQKSKSEQQVEEEPGWPHPQSCSTKVADEGTSASPGGYRAPAALWRSQSAFSITGEEALKTPPVEAPSRQPRDQGQHPRAESALPSWKSVDRLDETNLAPVLQSPDGNWVALKDGAPPPTRLLAKPKSGTFQALEVASSVASAYDEMGSDSEEDFDWSEALSKLCPRSRALPRNPQPQPTQAQSSDQGPIAASPSSALSPNPEAMCSDSETSSAGSSREVGHQARLSWLQRKAPRNPAAEKMRLHGELDVNFNPQLASRETSDSSEPEEAPHTTDRRARRWRRARLGSEEPSKEPSSPSAQLRDLDTHQVSDDLSETDISNEARDPQTLTDTTEEKRRNRLYELAMKMSEKETSSGEDQESEPKTESENQKESLSSEDNSQSVQEELKKKFSAVSLCNISTEVLKVINATEELIAGSTGPWESPQVPPDRQKGMFPRGTDQVRLDEQLTSLEENVYLAAGTVYGLETQLTELEDAARCIHSGTDETHLADLEDQVATAAAQVHHAELQISDIESRISALTIAGLNIAPCVRFTRRRDQKQRTQVQTIDTSRQQRRKLPAPPVKAEKIETSSVTTIKTFNHNFILQGSSTNRTKERKGTTKDLMEPALESAVMY
